Test results reported in publication PMC6020293, “In Vitro Reconstitution of Functional Type III Protein Export and Insights into Flagellar Assembly” (mBio, 2018).

Target: the molecule itself
Test: co-sedimentation; purified FlgE (4 µM) transported into inverted membrane vesicles with FlgD (0.6 or 4 µM), FliH2/FliI complex, FliJ and 5 mM ATP; after proteinase K and Triton X-100 centrifuged at 150,000 x g for 30 min; supernatant and precipitate immunoblotted; hook forms on the basal body inside the vesicle

B1: FlgE (natural protein)
chain: MSFSQAVSGLNAAATNLDVIGNNIANSATYGFKSGTASFADMFAGSKVGLGVKVAGITQDFTDGTTTNTGRGLDVAISQNGFFRLVDSNGSVFYSRNGQFKLDENRNLVNMQGMQLTGYPATGTPPTIQQGANPAPITIPNTLMAAKSTTTASMQINLNSTDPVPSKTPFSVSDADSYNKKGTVTVYDSQGNAHDMNVYFVKTKDNEWAVYTHDSSDPAATAPTTASTTLKFNENGILESGGTVNITTGTINGATAATFSLSFLNSMQQNTGANNIVATNQNGYKPGDLVSYQINNDGTVVGNYSNEQEQVLGQIVLANFANNEGLASQGDNVWAATQASGVALLGTAGSGNFGKLTNGALEASNVDLSKELVNMIVAQRNYQSNAQTIKTQDQILNTLVNLR
notes: FlgE, flagellar hook protein, Salmonella; also called hook protein FlgE
binding result: binds
